Data taken from patent US20120178124A1, “STEROL SIDE CHAIN-CLEAVING ENZYME PROTEIN AND USE THEREOF” (MITSUBISHI CHEMICAL CORPORATION, priority 2009, published 2012).
Where “and” joins values, the source holds several entries; their conditions need not be identical. Equal values may be shown once.

B1: Sphingomonas subterranea NBRC16086 P450scc CYPSS204A (CYPSS), wild type, SEQ ID NO: 2 (Novosphingobium subterraneum) (protein)
chain: MASAAAGADGLPLLDGGVPLLGHLAQFFRDPVSVLKRGYRSKGRLFAMNFMGQRMNVMLGPEHNRFFFEETDKLLSIRESMPFFLKMFSPEFYSFAEMDEYLRQRAIIMPRFKAASMKQYVPVMVEESLNLVERLGEEGEFDLIPTLGPVVMDIAAHSFMGREFHEKLGHEFFELFRDFSGGMEFVLPLWLPTPKMVKSQRAKKKLHAILQSWIDKRRASPLDPPDFFQTMIETKYPDGRAVPDEIIRHLILLLVWAGHETTAGQVSWALADLLQNPGYQQVLREEVASLLGGSDGRALGWEQAVAMEKMDLALRETERLHPVAYMLSRKASADIERDGYRIRKGEFVLLAPSVSHRMEETFRNADAYDPERFNPQNPDAQIESNSLIGFGGGVHRCAGVNFARMEMKVLVAILLQNFDMELIDEVRPIAGASTYWPAQPCRVRYKRRKLDGAGGSADVAALAKAAGCPAHA
B2: CYP204A1: P450scc from Novosphingobium aromaticivorans ATCC 700278, amino acid sequence SEQ ID NO: 23 (protein)
chain: MARAATAAGNGLPLLDGGVPLLGHLAQFFRDPVSVLKRGYRSKGRLFAMNFMGQRMNVMLGPEHNRFFFEETDKLLSIRESMPFFLKMFSPEFYSFAEMDEYLRQRSIIMPRFKAASMKQYVPVMVEESLNLVERLGEEGEFDLIPTLGPVVMDIAAHSFMGREFHEKLGHEFFELFRDFSGGMEFVLPLWLPTPKMVKSQRAKRKLHAILQSWIDKRRAAPLDPPDFFQTMIETKYPDGRPVPDEIIRHLILLLVWAGHETTAGQVSWALADLLQNPDYQKVLRGEISSLLGGSDGRDLGWEQAVAMEKMDLALRETERLHPVAYMLSRKARADIERDGYVIRKGEFVLLAPSVSHRMEETFRNPDAYDPERFNPANPDAQIESNSLIGFGGGVHRCAGVNFARMEMKVLVAILLQNFDMELMDEVRPIAGASTYWPAQPCRVRYRRRKLDGSEAGADMAALARAAGCPAHT
modifications: Novosphingobium aromaticivorans

How the values were obtained:
Format in all cases: biochemical
[1] = Kinetics analysis of CYP204A1 and CYPSS; conditions: for Specific activity: pH 7.5, 15° C., 60 minutes; for Km / Vmax: Lineweaver-Burk plot
Protocol: Moreover, the activity decrease rate when the substrate concentration is increased from 10 μM to 100 μM can also be obtained by conducting the conversion of 4-cholesten-3-one at a substrate concentration of 0.1 to 500 μM and then examining the relationship between the substrate concentration and the activity of the enzyme protein. Specifically, there is prepared 1 ml of a reaction solution, which comprises […] CYP204A1 or […] CYPSS204A, 96 μg/ml spinach-derived ferredoxin, 0.1 U/ml spinach-derived ferredoxin reductase protein, 3 U/ml glucose dehydrogenase, 60 mM glucose, 2 mM NADH and 2 mM NADPH. Tris-HCl is then added to the reaction mixture to adjust to pH 7.5. 20 μl of 4-cholesten-3-one used as a substrate, dissolved in DMSO to have a final concentration of 0.1, 0.5, 1, 2, 5, 10, 20, 50, 100 or 500 μM, is added to the reaction mixture. The reaction is initiated by addition of NADH and NADPH, and it can be carried out at 200 rpm at 15° C. for 60 minutes.
(§1) To 20 ml of the cell suspension prepared in (2) above, 680 μl of X10 Bug Buster (Novagen), 20 μl of Benzonase (Novagen), and 2 ml of 40 mg/ml lysozyme were added, and the obtained mixture was then shaken at 30° C. for 30 minutes to disintegrate the cells. Thereafter, the reaction solution was centrifuged to obtain the cell-free extract. The obtained, approximately 20 ml of cell-free extract was dialyzed against 1 L of Buffer R (20 mM KPB pH 7.4, 20% glycerol) two times, and the deposited precipitate was then removed by centrifugation. The cell-free extract obtained as a supernatant herein was used in the subsequent experiments.
Using the cell-free extract prepared in (3) above, conversion of 4-cholesten-3-one was carried out at substrate concentration of 0.1 to 500 μM, and the relationship between the substrate concentration and the enzyme protein activity was examined. The reaction solution was prepared, such that 1 ml of the buffer comprised 220 pmol CYP204A1 or 250 pmol CYPSS, 96 μg/ml spinach-derived ferredoxin, 0.1 U/ml spinach-derived ferredoxin reductase protein, 3 U/ml glucose dehydrogenase, 60 mM glucose, 2 mM NADH, and 2 mM NADPH. Tris-HCl was added to the reaction solution so as to adjust it to pH 7.5. 20 μl of 4-cholesten-3-one, which had been dissolved in DMSO to a final concentration of 0.1, 0.5, 1, 2, 5, 10, 20, 50, 100 or 500 μM, was added. The reaction was initiated by addition of NADH and NADPH, and it was carried out at 200 rpm at 15° C. for 60 minutes. Thereafter, 1.5 ml of ethyl acetate was added to the reaction solution to terminate the reaction, and extraction was carried out. Then, extraction was carried out again with 0.75 ml of ethyl acetate. The obtained ethyl acetate phase was solidified using evaporator, and the residue was then dissolved in 200 μl of methanol. Thereafter, progesterone was detected by HPLC analysis. The relationship between the substrate concentration and the enzyme protein activity, and kinetics parameters calculated by production of Lineweaver-Burk plot, is shown in Table 5.

[2] = Thermostability test of cell-free extract; conditions: for Relative activity: 140 hr versus 0 hr; for Activity 0 hr: enzyme protein solution before conservation, reaction 15° C., 4 hours
Protocol: as §1
The cell-free extract prepared in (3) above was conserved at various temperature for 140 hours. The conservation temperature was set at 6° C., 10° C., 20° C., 30° C., 37° C., or 45° C. Using the enzyme protein solution before conservation and the sample obtained after conservation for 140 hours, conversion of 4-cholesten-3-one was carried out, and stability was examined. The reaction solution was prepared, such that 1 ml of the buffer comprised an enzyme protein solution of CYP204A1 or CYPSS that had been conserved at each temperature, 64 μg/ml spinach-derived ferredoxin, 0.1 U/ml spinach-derived ferredoxin reductase protein, 3 U/ml glucose dehydrogenase, 60 mM glucose, 50 μg/ml 4-cholesten-3-one, 2 mM NADH, and 2 mM NADPH. The reaction was initiated by addition of NADH and NADPH, and it was carried out at 200 rpm at 15° C. for 4 hours. Thereafter, 1.5 ml of ethyl acetate was added to the reaction solution to terminate the reaction, and extraction was carried out. Then, extraction was carried out again with 0.75 ml of ethyl acetate. The obtained ethyl acetate phase was solidified using an evaporator, and the residue was then dissolved in 200 μl of methanol. Thereafter, progesterone was detected by HPLC analysis. […] In particular, when the cell-free extract was conversed at 20° C. for 140 hours, CYP204A1 maintained 47% of its activity and CYPSS maintained 39% of its activity.

[3] = Kinetics analysis of CYP204A1 and CYPSS; conditions: 4-cholesten-3-one 100 μg/ml (so in the source)
[4] = conserved at 6° C. for 140 hours
[5] = conserved at 10° C. for 140 hours
[6] = conserved at 20° C. for 140 hours
[7] = conserved at 30° C. for 140 hours
[8] = conserved at 37° C. for 140 hours
[9] = conserved at 45° C. for 140 hours
[10] = 4-cholesten-3-one concn. 0.1 μM
[11] = 4-cholesten-3-one concn. 0.5 μM
[12] = 4-cholesten-3-one concn. 10 μM (reference)
[13] = 4-cholesten-3-one concn. 100 μM
[14] = 4-cholesten-3-one concn. 500 μM

| Molecule | Activity 140 hr [2, 4] [µg/mL] | Relative activity ([2]; conserved at 6° C.) [%] | Activity 140 hr [2, 5] [µg/mL] | Relative activity ([2]; conserved at 10° C.) [%] | Activity 140 hr [2, 6] [µg/mL] | Activity 140 hr [2, 7] [µg/mL] | Relative activity ([2]; conserved at 30° C.) [%] | Activity 140 hr [2, 8] [µg/mL] | Relative activity ([2]; conserved at 37° C.) [%] | Activity 140 hr [2, 9] [µg/mL] | Relative activity ([2]; conserved at 45° C.) [%] | Activity 0 hr [2] [µg/mL] | Specific activity [1, 10] [mmol/min/mol] | Specific activity [1, 11] [mmol/min/mol] | Specific activity ([1]; 4-cholesten-3-one concn. 1 μM) [mmol/min/mol] | Specific activity ([1]; 4-cholesten-3-one concn. 2 μM) [mmol/min/mol] | Specific activity ([1]; 4-cholesten-3-one concn. 5 μM) [mmol/min/mol] | Specific activity relative to that at 10 μM [1, 12] | Specific activity ([1]; 4-cholesten-3-one concn. 10 μM) [mmol/min/mol] | Specific activity ([1]; 4-cholesten-3-one concn. 20 μM) [mmol/min/mol] | other results |
| --- | --- | --- | --- | --- | --- | --- | --- | --- | --- | --- | --- | --- | --- | --- | --- | --- | --- | --- | --- | --- | --- |
| CC(C)CCC[C@@H](C)[C@H]1CC[C@H]2[C@@H]3CCC4=CC(=O)CC[C@]4(C)[C@H]3CC[C@]12C [4-cholesten-3-one] |  |  |  |  |  |  |  |  |  |  |  |  |  |  |  |  |  |  |  |  | substrate inhibition ([1]; 4-cholesten-3-one 0.1 to 500 μM): causes substrate inhibition |
| B1 | 11.6 | 81 | 10.5 | 73 | 5.6 | 1 | 7 | 0 | 0 | 0 | 0 | 14.4 | 1.9 | 20.0 | 36.5 | 49.5 | 70.4 | 100 | 67.2 | 72.4 | Vmax value compared with that of CYP204A1 ([1]; 4-cholesten-3-one): approximately 1.7 times; Specific activity ([1]; 4-cholesten-3-one concn. 50 μM): 71.2 mmol/min/mol; Specific activity relative to that at 10 μM [1, 13]: 90.0; Specific activity [1, 13]: 60.5 mmol/min/mol; Specific activity [1, 14]: 33.6 mmol/min/mol; Km ([1]; 4-cholesten-3-one): 1100 nM and ~1000 nM; Vmax ([1]; 4-cholesten-3-one): 78.7 mmol/min/mol; enzyme protein activity in comparison with that at 10 μM 4-cholesten-3-one [3]: 90% |
| B2 | 4.5 | 85 | 3.9 | 74 | 2.5 | 0.5 | 9 | 0 | 0 | 0 | 0 | 5.3 | 2.2 | 15.3 | 25.2 | 32.2 | 36.1 | 100 | 43.1 | 42.7 | Specific activity ([1]; 4-cholesten-3-one concn. 50 μM): 33.5 mmol/min/mol; Specific activity relative to that at 10 μM [1, 13]: 66.6; Specific activity [1, 13]: 28.7 mmol/min/mol; Specific activity [1, 14]: 20.1 mmol/min/mol; Km ([1]; 4-cholesten-3-one): 1000 nM and ~1000 nM; Vmax ([1]; 4-cholesten-3-one): 47.4 mmol/min/mol; enzyme protein activity in comparison with that at 10 μM 4-cholesten-3-one [3]: 67% |
